The results in this text go back to patent publication EP4810515A1 (Shanghai Haiju Biological Technology Co., Ltd., dated 2026).

The target in assay [1] is T1, human GDF15 recombinant protein (ACRO, GD5-H5149) (human, UniProt Q99988 197-308).
T1 sequence (looked up): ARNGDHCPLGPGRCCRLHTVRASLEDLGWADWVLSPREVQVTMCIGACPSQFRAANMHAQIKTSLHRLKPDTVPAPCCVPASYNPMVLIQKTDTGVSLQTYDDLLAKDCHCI
In words: cell-based or functional assay.

Assay [2] deals with T1, human GDF15 recombinant protein (ACRO, …). As to the kind of experiment: ELISA, coated hGDF-15.His.
Assay [3] has as its target T2, cynomolgus monkey GDF15 recombinant protein (Kactus, GDF-CM215) (cynomolgus monkey, UniProt G7PWZ3 197-308, limits assumed).
T2 construct: also called cynoGDF-15.hFc; cynoGDF15; not shown: human Fc (hFc)
T2 sequence (looked up): T1 sequence (looked up) with H6R, R21H, A54E, T63M, S64N, I112V
As to the kind of experiment: ELISA, coated cynoGDF-15.hFc.

Assay [4] has as its target T3, mouse GDF15 recombinant protein (Kactus, GDF-MM215) (mouse, UniProt Q9Z0J7 189-303, limits assumed).
T3 construct: also called mGDF-15.hFc; murine GDF15; not shown: human Fc (hFc)
T3 sequence (looked up): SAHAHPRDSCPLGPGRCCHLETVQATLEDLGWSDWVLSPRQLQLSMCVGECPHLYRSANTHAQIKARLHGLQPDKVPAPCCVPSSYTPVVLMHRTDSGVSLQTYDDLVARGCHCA
In words: ELISA, coated mGDF-15.hFc 2 ug/mL. In general terms: An ELISA detects its analyte on a solid surface through an enzyme-linked reagent.

Assay [5] deals with T1, human GDF15 recombinant protein (ACRO, …). As to the kind of experiment: cell-based or functional assay. The source holds these as a separate data set.
For assay [6], the target named is T3, mouse GDF15 recombinant protein …. In words: ELISA, coated mGDF-15.hFc.

Positions count from the first letter of the chain named.

B1: G2-CH2-LP1-hIgG1 (LALAGA, -K) (antibody, V domains shown)
VH: QVTLKESGPGILQPSQTLSLTCSFSGFSLTISGMGVSWIRQPSGKGLEWLAHIYWDDDKRYNPSLKSRLTISKDTSSNQVFLEITSVDTADTATYYCVRAGWDFFDYWGQGTTLTVSS
VL: DIVMTQSQKFMSTSVGDRVSVTCKASQNVGTNVAWYQQKPGQSPKGLIYSASYRYSGVPDRFTGSGSGTDFTLTISNVQSEDLAEYFCQQYNAYPWTFGGGTKLEIKR
With B1, in assay [1], the “IC50, reporter gene cell strain (mGFRAL)” value came to 0.088 mg/L.

B2: G2-CH17 (antibody, human IgG1, kappa, V domains shown)
VH: B1 VH with T30N, I31T, S77R, E83K, S86G, T94A, V98A, A100T, Y107I
VL: B1 VL with T31S, G46A, S76T, N92K, A93S, W96L, G100A, I106L
notes: chimeric: murine variable regions on human IgG1 constant region mutant (LALAGA, -K)
On to B2, for which the results for the EC50 in assay [2] and in assay [3] were 0.00393 nM and 0.13 nM, respectively. Also, in assay [4], the binding result is on record as “no binding”.

B3: G2-CH2-LP3-hIgG1 (LALAGA, -K) (antibody, V domains shown)
VH: B1 VH
VL: B1 VL with A93Q
Take B3: in assay [1], the “IC50, reporter gene cell strain (mGFRAL)” value is 0.093 mg/L.

B4: G2-CH2-LP2-hIgG1 (LALAGA, -K) (antibody, V domains shown)
VH: B1 VH
VL: B1 VL with N92E, A93S
B4: in assay [1], the “IC50, reporter gene cell strain (mGFRAL)” value was 0.091 mg/L.

B5: G2-CH8-LP1-hIgG1 (LALAGA, -K) (antibody, V domains shown)
VH: QVTLKESGPGILQPSQTLSLTCSFSGFSLSTYGIGVGWIRQPSGKGLEWLAHIWWNDNKYYNTALKSRLTISKDTSNNQVFLKIASVDTADTATYYCARLAYDYVDSWGQGTTLTVSS
VL: DIVMTQAAFSNPVTLGTSASISCRSSKSLLHSNAITYLYWYLQKPGQSPQLLIYQMSNLVSGVPDRFSSSGSGTDFTLRISRVEAEDVGVYYCAQNLELPPTFGAGTKLELKR
Consider B5, for which the “IC50, reporter gene cell strain (mGFRAL)” value in assay [1] stood at 0.116 mg/L.

B6: G2-CH8-LP3-hIgG1 (LALAGA, -K) (antibody, V domains shown)
VH: B5 VH
VL: B5 VL with N33E, A34G
Consider B6, for which the “IC50, reporter gene cell strain (mGFRAL)” value in assay [1] was determined as 0.081 mg/L.

B7: G2-CH8-LP2-hIgG1 (LALAGA, -K) (antibody, V domains shown)
VH: B5 VH
VL: B5 VL with A34Q
Take B7: the “IC50, reporter gene cell strain (mGFRAL)” value in assay [1] was 0.1 mg/L.

B8: G2-CH10 (antibody, human IgG1, kappa, V domains shown)
VH: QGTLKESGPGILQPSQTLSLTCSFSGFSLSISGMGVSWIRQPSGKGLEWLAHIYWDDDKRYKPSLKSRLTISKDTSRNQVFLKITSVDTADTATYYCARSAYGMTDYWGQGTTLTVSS
VL: DIQMTQTTSSLSASLGDRVTISCRASQDISNYLNWYQQKPDGTVKLLIHSASNLHSGVPSRFSGSGSGTDYSLTISNLEQEDIATYFCQQYNMFPWTFGGGTKLEIKR
notes: as for B2
Take B8: the “IC50, luciferase reporter gene cell strain (mGFRAL/RET HEK293) with hGDF15” value in assay [5] was found to be 3.4 nM. Moreover, the EC50 (as a rule, the concentration needed to bring the measured effect to its halfway point) in assay [2] is 0.00592 nM; in assay [6], 0.25 nM; in assay [3] it was 0.0841 nM.

B9: G2-CH5-HP1-hIgG1 (LALAGA, -K) (antibody, V domains shown)
VH: EVLLQQSGPELVKPGASVKIACKASGYTLTDYNLNWVKQSHGKSLEWIGDLNPYNAGIIYNQKFKGKATLTVDKSSSTAYMELRSLTSEDIAVYYCAREGRGGAWFDSWGQGTLVTVSA
VL: DIQMTQSSSSFSVSLGDRVTITCKASEDIYHRLAWYQQKPGNAPRLLISGATSLETGIPSRFSGSGSGKDYALSITSLQTEDVGTYYCQQYWSPPFTFGSGTKLEIKR
As for B9, the “IC50, reporter gene cell strain (mGFRAL)” value in assay [1] is 0.18 mg/L.

B10: G2-CH5-HP2-hIgG1 (LALAGA, -K) (antibody, V domains shown)
VH: B9 VH with A56Q
VL: B9 VL
With B10, the “IC50, reporter gene cell strain (mGFRAL)” value in assay [1] amounted to 0.142 mg/L.
